How the values were obtained:
[1] = system: hind limb arthritic rat model; assay: Reduction of swelling of inflamed tissues measured by ankle diameter; format: in vivo; settings: same 3 mg dosage, administration to the skin compared to subcutaneous injection, FIG. 12
Method: Furthermore, there was a 17% reduction in the swelling of these inflamed tissues after administration of the same 3 mg dosage of Etanercept as measured by ankle diameter (FIG. 12).

[2] = Biodistribution of Etanercept across multiple tissue types following delivery to the skin; format: in vivo, rat; settings: delivery to the skin compared to traditional i.v., s.c., or i.d. methods, FIG. 10
Description: The biodistribution of Etanercept across multiple tissues types following delivery was investigated.

[3] = Localization of Etanercept to inflamed tissues in hind limb arthritic rat model; format: in vivo; settings: administered to the skin compared to subcutaneous delivery, FIG. 11A and B
[4] = Rate of blood serum absorption of Etanercept after delivery to the skin; format: in vivo; settings: administration to the skin compared with i.v., s.c., or i.d. methods, FIG. 13
[5] = In vivo near infrared imaging of lymphatic delivery of fluorescently tagged Etanercept after needle array administration to the skin; design: species or system rat; settings: needle array device placed dorsally on rats, FIG. 8 and 9
Method: The ability to deliver the protein therapeutic Etanercept directly to the lymphatic system via administration to the skin was tested. Etanercept was fluorescently tagged for in vivo visualization using near infrared light as previous described, see Sevick-Muraca et al., J. Clin Invest., 124 (3), 905-914 (2014), which is incorporated by reference herein for its teachings thereof. Etanercept was administered to the skin of rats by placing a delivery device comprising an array of needles dorsally on the rats.

For Etanercept, the “reduction in the swelling of inflamed tissues (ankle diameter)” value [1] was 17%, the “levels within the axillary and inguinal lymph nodes” value [2] was “much higher levels” and the “levels localized to inflamed tissues” value [3] was “higher levels”. The “blood serum absorption rate” value [4] was “approximately the same” and the “lymphatic uptake and distribution after administration to the skin” value [5] was “uptake by the lymphatic vasculature and subsequent distribution to primary and secondary lymph node tissues”.
